Drawing on PMC3107735, this text covers Kd for 1 substance.

For this test, the target named is bovine α-thrombin (bovine). Kind of test: SPR. (SPR reads the build-up and loss of mass on a sensor chip optically.)

As for “TMEGF56, fragment of thrombomodulin with the fifth and sixth EGF-like domains (domain or fragment)”, the Kd (in general, the equilibrium constant for the complex coming apart) stood at 1.7 nM.
